According to paper PMC12618757:

Biological target: EGFP-mPiezo1 (murine Piezo1 fused to EGFP) (murine) (UniProt E2JF22)
UniProt E2JF22, sequence (E2JF22 whole entry, the tested form may be a part): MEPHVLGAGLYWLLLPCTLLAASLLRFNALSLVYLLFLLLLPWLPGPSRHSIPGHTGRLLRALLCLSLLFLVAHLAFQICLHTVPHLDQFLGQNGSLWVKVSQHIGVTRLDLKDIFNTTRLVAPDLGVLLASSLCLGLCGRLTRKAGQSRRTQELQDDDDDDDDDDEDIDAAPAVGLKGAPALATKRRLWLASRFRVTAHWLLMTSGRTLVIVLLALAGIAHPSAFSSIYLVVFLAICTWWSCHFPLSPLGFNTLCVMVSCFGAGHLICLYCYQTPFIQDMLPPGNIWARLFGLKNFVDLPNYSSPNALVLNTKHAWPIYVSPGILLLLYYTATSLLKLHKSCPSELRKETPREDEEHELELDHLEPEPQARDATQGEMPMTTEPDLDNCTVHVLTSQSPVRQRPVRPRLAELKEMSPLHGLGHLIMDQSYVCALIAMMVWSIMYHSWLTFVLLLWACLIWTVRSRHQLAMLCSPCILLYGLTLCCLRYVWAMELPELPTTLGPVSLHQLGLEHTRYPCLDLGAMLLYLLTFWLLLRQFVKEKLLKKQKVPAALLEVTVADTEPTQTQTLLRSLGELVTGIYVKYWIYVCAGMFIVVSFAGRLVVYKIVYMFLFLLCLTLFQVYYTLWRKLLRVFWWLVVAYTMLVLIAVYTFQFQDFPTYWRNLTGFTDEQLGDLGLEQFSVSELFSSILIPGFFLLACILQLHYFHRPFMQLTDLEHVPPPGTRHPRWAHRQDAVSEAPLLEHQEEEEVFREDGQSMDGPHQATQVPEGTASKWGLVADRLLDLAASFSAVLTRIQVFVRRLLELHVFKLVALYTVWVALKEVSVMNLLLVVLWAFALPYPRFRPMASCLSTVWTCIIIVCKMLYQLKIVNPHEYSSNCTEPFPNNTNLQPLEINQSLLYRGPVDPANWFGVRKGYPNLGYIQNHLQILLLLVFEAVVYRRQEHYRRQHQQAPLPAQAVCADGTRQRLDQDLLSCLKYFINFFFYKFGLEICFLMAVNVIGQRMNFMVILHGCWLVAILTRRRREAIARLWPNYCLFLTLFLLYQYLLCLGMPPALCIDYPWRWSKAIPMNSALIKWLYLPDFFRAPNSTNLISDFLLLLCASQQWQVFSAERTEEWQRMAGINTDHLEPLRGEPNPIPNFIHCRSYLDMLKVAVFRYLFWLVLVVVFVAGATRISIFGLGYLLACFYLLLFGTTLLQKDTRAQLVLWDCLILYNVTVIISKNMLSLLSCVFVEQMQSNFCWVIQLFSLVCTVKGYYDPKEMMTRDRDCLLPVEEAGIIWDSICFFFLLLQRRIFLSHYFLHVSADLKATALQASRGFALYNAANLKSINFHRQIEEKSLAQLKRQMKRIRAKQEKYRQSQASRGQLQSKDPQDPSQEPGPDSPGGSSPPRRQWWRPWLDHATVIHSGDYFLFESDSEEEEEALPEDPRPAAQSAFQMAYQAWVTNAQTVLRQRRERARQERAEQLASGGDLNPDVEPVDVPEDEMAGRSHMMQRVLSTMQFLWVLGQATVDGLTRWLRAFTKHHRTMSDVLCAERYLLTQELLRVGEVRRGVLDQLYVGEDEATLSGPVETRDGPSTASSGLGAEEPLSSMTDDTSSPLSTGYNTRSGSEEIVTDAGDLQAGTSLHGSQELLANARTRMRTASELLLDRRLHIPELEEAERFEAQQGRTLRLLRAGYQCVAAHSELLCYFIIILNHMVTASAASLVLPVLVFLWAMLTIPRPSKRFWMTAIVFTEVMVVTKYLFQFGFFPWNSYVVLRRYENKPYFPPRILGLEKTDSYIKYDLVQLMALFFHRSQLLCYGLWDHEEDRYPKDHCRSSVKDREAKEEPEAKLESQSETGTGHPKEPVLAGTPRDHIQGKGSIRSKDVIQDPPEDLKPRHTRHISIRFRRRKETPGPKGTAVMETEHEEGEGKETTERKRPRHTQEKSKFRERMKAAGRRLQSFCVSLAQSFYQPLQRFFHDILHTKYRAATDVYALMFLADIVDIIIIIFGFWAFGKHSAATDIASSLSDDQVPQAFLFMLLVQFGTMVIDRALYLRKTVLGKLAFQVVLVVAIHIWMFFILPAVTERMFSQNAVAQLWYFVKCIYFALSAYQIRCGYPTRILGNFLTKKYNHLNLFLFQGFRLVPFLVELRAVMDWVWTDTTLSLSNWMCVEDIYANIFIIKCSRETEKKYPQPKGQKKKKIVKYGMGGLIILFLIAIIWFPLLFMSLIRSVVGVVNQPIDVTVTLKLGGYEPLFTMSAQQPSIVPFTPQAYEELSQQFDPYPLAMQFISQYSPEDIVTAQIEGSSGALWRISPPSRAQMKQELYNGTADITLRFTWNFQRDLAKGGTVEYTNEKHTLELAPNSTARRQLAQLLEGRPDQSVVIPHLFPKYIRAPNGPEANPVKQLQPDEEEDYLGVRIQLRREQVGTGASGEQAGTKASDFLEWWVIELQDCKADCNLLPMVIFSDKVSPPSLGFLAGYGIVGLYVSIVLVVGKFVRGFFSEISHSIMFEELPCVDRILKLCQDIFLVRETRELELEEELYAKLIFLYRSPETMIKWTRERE

LecB-S22A mutant (natural protein)
average stretch-induced current at −80 mmHg, EGFP-mPiezo1-overexpressing H1299 cells, LecB-S22A for 3 h (not significantly changed compared to untreated control cells): -36.5 pA
